Source: patent US9044511B2, “Peptide” (Marealis AS, priority 2010, dated 2015)
Where “and” joins values, the source holds several entries; their conditions need not be identical. Equal entries are not always repeated. Where two headings read alike, the source gives them in different places. Peptide text beside a SMILES is read from it.

T1: ACE (Sigma A 6778) (Oryctolagus cuniculus, UniProt P12822)
T1 construct: purchased Sigma A 6778
T1 sequence (P12822 34-1310): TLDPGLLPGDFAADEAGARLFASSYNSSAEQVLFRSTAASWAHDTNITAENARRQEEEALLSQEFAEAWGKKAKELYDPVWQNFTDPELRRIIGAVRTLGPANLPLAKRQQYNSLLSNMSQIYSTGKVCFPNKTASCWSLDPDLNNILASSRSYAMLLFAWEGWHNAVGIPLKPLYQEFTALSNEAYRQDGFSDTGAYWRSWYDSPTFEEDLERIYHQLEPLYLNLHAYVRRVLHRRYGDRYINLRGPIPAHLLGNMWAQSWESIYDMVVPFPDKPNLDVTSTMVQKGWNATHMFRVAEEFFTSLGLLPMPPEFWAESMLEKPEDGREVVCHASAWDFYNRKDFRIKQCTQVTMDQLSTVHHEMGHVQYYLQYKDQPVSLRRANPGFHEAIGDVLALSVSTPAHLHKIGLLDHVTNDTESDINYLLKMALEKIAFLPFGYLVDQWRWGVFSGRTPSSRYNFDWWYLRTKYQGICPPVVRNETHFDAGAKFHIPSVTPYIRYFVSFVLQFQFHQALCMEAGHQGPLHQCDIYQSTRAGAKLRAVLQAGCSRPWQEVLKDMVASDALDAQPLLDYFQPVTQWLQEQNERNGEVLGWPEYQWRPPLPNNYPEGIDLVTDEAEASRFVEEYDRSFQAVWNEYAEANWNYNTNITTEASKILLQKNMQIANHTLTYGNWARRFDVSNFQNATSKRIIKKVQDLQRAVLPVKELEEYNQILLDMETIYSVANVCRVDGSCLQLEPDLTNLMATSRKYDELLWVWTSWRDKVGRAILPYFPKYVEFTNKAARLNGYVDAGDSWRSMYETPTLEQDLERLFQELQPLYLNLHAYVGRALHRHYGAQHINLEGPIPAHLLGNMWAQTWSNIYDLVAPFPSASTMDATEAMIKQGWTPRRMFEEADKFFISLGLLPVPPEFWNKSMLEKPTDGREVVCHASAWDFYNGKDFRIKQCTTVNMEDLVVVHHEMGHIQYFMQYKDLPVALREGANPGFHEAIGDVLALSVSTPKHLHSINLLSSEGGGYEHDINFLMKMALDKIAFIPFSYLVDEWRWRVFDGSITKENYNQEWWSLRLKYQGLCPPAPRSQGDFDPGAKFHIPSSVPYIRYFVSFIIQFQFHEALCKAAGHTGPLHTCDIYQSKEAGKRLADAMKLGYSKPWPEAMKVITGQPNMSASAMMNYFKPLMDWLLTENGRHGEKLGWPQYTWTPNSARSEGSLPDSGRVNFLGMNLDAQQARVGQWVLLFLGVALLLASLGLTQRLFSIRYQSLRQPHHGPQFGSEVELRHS

T2: Angiotensin I-converting enzyme (ACE) (Sigma A 6778) (UniProt P12822 34-1310, limits assumed)
T2 sequence (looked up): T1 sequence (P12822 34-1310)

T3: ACE from rabbit lung acetone extract (rabbit, UniProt P12822 34-1310, limits assumed)
T3 sequence (looked up): T1 sequence (P12822 34-1310)


Key:
ACE (Sigma A 6778) = molecular target: T1, ACE (Sigma A 6778); experiment: ACE-inhibitory activity, HHL substrate, hippuric acid by HPLC (method of Dragnes et al. / Cushman and Cheung); type: biochemical
Excerpt: ACE-inhibitory activity may be assayed using known methods, for example based on the method reported by Cushman and Cheung (1971) by measuring the end product hippuric acid (HA) from the enzymatic reaction between ACE (Sigma A 6778) and the substrate HHL (Sigma H 1635). (CUSHMAN, D. W. & CHEUNG, H. S. (1971). Concentrations of Angiotensin-Converting Enzyme in Tissues of Rat. Biochimica Et Biophysica Acta 250(1), 261-265 and Dragnes et al. J Food Composition and Analysis 2009; 22: 714-17). A different suitable assay is disclosed by Vermeirssen et al. (2002), J. Biochem Biophys. Methods 51 (2002), pages 75-87, which is incorporated herein by reference. Briefly, this is a spectrophotometric method in which ACE inhibition is measured using the substrate furanacryloyl-Phe-Gly-Gly and rabbit lung acetone extract as the ACE source. The IC50 may be determined.
An FSY peptide was analysed via an enzyme assay wherein ACE produces hippuric acid (HA) from the substrate hippuryl-histidine-leucine (HHL). The HA concentration was determined by quantitative HPLC analyses and a decreased concentration was correlated with inhibitory effect. ACE-inhibitory activity was determined based on the method reported by Cushman and Cheung (1971) by measuring the end product hippuric acid (HA) from the enzymatic reaction between ACE (Sigma A 6778) and the substrate HHL (Sigma H 1635), essentially as described in Dragnes et al. J Food Composition and Analysis 2009; 22: 714-17. A 100 μl volume with 2 mM HHL in 100 mM sodium borate buffer pH 8,3 was pre-incubated at 37° C. for 30 minutes with 25 μl inhibitor (FSY peptide diluted in Sodium borate buffer). Then the assay was initiated by adding 50 μl ACE (10 mU). The enzymatic reaction was stopped by addition of 215 μl 1 M HCl.
Quantitative HPLC analyses were performed on a Shimadzu (Shimadzu Corporation, Japan), using a Symmetry-Shield reverse phase C-18 Intelligent Speed column. The HA was eluted at ambient temperature using a mobile phase that consisted of 0.05% aqueous trifluoroacetic acid and HPLC-grade acetonitrile. A 2 min linear gradient was used, beginning after 0.5 min isocratic elution with 5% acetonitrile and ending with 90% acetonitrile. The flow-rate was maintained at 2 mL min ? 7 1 and the UV absorption was measured at 228 nm.
Determinations of IC50 values depend on the precise assay conditions, which makes it difficult to make meaningful comparisons between IC50 values determined in separate assays. A comparative analysis was therefore carried out to compare the ACE-inhibitory activity of the FSY peptide to known ACE-inhibitory peptides. ACE-inhibitory activity was assayed using the method of Dragnes et al. described in Example 1.

[1] = molecular target: T2, Angiotensin I-converting enzyme (ACE) …; experiment: cell-based or functional assay
[2] = molecular target: T3, ACE from rabbit lung acetone extract; experiment: cell-based or functional assay
[3] = molecular target: T2, Angiotensin I-converting enzyme (ACE) …; experiment: cell-based or functional assay; remark: listed apart in the source
[4] = comparative analysis, read-out: IC50 in μg/ml (converted)

IC50 (ACE (Sigma A 6778); [4]) [µM]	IC50 in µM (ACE inhibition, method of Dragnes et al.) [1] [µM]	IC50 in µg/ml (ACE inhibition, method of Dragnes et al.) [1] [µg/mL]	IC50 of ACE inhibition (method of Vermeirssen et al.) [2] [µM]	Molecule	other results
2.17				N[C@@H](Cc1ccccc1)C(=O)N[C@@H](CO)C(=O)N[C@@H](Cc1ccc(O)cc1)C(=O)O [FSY] (H-Phe-Ser-Tyr-OH; N-terminus and C-terminus assumed)	IC50 (ACE (Sigma A 6778); comparative analysis, read-out: IC50): 2.2 µM; IC50 (ACE (Sigma A 6778); typical measurements, read-out: IC50 with respect to ACE inhibition, method of Dragnes et al.): ~2.2 µM
12.8				CC(C)[C@H](N)C(=O)N[C@@H](Cc1ccc(O)cc1)C(=O)O [VY, reference compound] (H-Val-Tyr-OH; N-terminus and C-terminus assumed)	
	13	3.6		VY	
			~274	FTY [FTY peptide]	IC50 of ACE inhibition (method of Dragnes et al.) [3]: ~59 µM
	3.2	1.04		IPP	
	2.2	0.9	~7.7	FSY [FSY peptide]	IC50 of ACE inhibition (hippuric acid from HHL, HPLC; method of Dragnes et al.) [3]: ~4 µM and 1.7 µM and ~2.2 µM
